Data taken from the supplement of paper PMC10567573.

B1: SCNN1D (parent)
chain: RRPSPVLRHLELLDEFARENIDSL
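Further: lentivirally expressed fusions sorted by FACS into six bins by GFP to DsRed ratio, PSI derived from sequencing read proportions per bin multiplied by bin number.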

Variants of: B1
Experiment: protein stability index of a GFP-peptide fusion (GPS, HEK-293T) (PSI 1-6); higher = more stable
Conditions: c terminus: a fixed tail appended
For RRPSPVLRHLELLDEFARENIGSL, the protein stability index was 2.41. Work on RRPSPVLRHLELLDEFARENICSL yielded a protein stability index of 1.7. For RRPSPVLRHLELLDEFARENIISL, the protein stability index was 2.15. For RRPSPVLRHLELLDEFARENIKSL, the protein stability index was 2.97. RRPSPVLRHLELLDEFARENILSL gave a protein stability index of 1.55. RRPSPVLRHLELLDEFARENINSL showed a protein stability index of 3.12. RRPSPVLRHLELLDEFARENIDQL showed a protein stability index of 2.27. RRPSPVLRHLELLDEFARENIDFL gave a protein stability index of 1.74. RRPSPVLRHLELLDEFAREHIDSL showed a protein stability index of 1.85. RRPSPVLRHLELLDEFAREDIDSL showed a protein stability index of 3.65. In the case of RRPSPVLRHLELLDVFARENIDSL, the protein stability index is reported as 2.29. In the case of RRPSPVLRHLELLDQFARENIDSL, the protein stability index is reported as 2.95. With RRPSPVLRHLELLDIFARENIDSL the protein stability index was 2.72. RRPSPVLRHLELLDRFARENIDSL showed a protein stability index of 2.72. Work on RRPSPVLRHLELLDSFARENIDSL yielded a protein stability index of 3.27. Work on RRPSPVLRHLELLDEFARENIDSR yielded a protein stability index of 3.17. In the case of RRPSPVLRHLELLDEFARENIDSE, the protein stability index is reported as 3.25. For RRPSPVLRHLELLDEFARENIDSG, the protein stability index was 3.06. With RRPSPVLRHLEYLDEFARENIDSL the protein stability index was 3.56. For RRPSPVLRHLEDLDEFARENIDSL, the protein stability index was 4.64. Variant RRPSPVLRHLEVLDEFARENIDSL has a protein stability index of 4.05. Work on RRPSPVLRHLECLDEFARENIDSL yielded a protein stability index of 3.97. Variant RRPSPVLYHLELLDEFARENIDSL has a protein stability index of 2.87. With RRPSPVLEHLELLDEFARENIDSL the protein stability index was 4.4. With RRPSPVLSHLELLDEFARENIDSL the protein stability index was 3.77. For RRPMPVLRHLELLDEFARENIDSL, the protein stability index was 2.88. RRPCPVLRHLELLDEFARENIDSL showed a protein stability index of 2.99. Work on RRPKPVLRHLELLDEFARENIDSL yielded a protein stability index of 3.14. Variant RRPQPVLRHLELLDEFARENIDSL has a protein stability index of 3.89. Variant RRPSPVLRHLELLDEFARENADSL has a protein stability index of 3.04. With RRPSPVLRHLELLDEFARENMDSL the protein stability index was 2.89. RRPSPVLRHLELLDEFARENFDSL showed a protein stability index of 2.74. In the case of RRPSPVLRHLELLDEFARENTDSL, the protein stability index is reported as 2.98. In the case of RRPSPVLRHLELLDEFARENKDSL, the protein stability index is reported as 3.36. RRPSPVLRHLELLDEFARENSDSL showed a protein stability index of 3.85. Work on RRPSPVLRHLELKDEFARENIDSL yielded a protein stability index of 3.9. For RRPSPVLRHLELSDEFARENIDSL, the protein stability index was 4.26. In the case of RRPSPVLRHLELNDEFARENIDSL, the protein stability index is reported as 4.16. With RRPSPVLRHLELDDEFARENIDSL the protein stability index was 4.57. Variant RRPSPVHRHLELLDEFARENIDSL has a protein stability index of 3.4. RRPSPVERHLELLDEFARENIDSL gave a protein stability index of 3.53. Work on RRPSPVLRHLELLDEIARENIDSL yielded a protein stability index of 2.84. Variant RRPSPVLRHLELLDEEARENIDSL has a protein stability index of 3.63. Work on RRPSPVLRHLELLDENARENIDSL yielded a protein stability index of 3.88. RRPSPVLRHLELLDEAARENIDSL showed a protein stability index of 2.61. Work on RRPSPVLRHLELLDEHARENIDSL yielded a protein stability index of 3.77. Work on RRPSPVLRHLELLDEFPRENIDSL yielded a protein stability index of 3.48. For RRPSPVLRHLELLDEFLRENIDSL, the protein stability index was 3.07. RRPSPVLRHLELLDEFDRENIDSL showed a protein stability index of 4.43. For RRPSPVLRHLELLDEFTRENIDSL, the protein stability index was 3.62. Work on RRPSPVLRHLELLDEFQRENIDSL yielded a protein stability index of 3.16. For RRPSPVLRHLELLDEFMRENIDSL, the protein stability index was 2.92. With RRPSPVLRHLKLLDEFARENIDSL the protein stability index was 2.83. RRPSPVLRHLGLLDEFARENIDSL showed a protein stability index of 4.33. In the case of RRPSPVLRHLYLLDEFARENIDSL, the protein stability index is reported as 2.25. RRPSPVLRHLNLLDEFARENIDSL gave a protein stability index of 3.5. With RRPSPVLRHLMLLDEFARENIDSL the protein stability index was 2.14. RRPSPVLRHLLLLDEFARENIDSL showed a protein stability index of 1.41. In the case of RRPSPVLRHLELLDEFARQNIDSL, the protein stability index is reported as 2.68. Work on RRPSPVLRHLELLDEFARVNIDSL yielded a protein stability index of 2.88. Work on RRPSPVLRHLELLDEFARINIDSL yielded a protein stability index of 2.5. For RRPSPVLRHLELLDEFARWNIDSL, the protein stability index was 1.82. In the case of RRPSRVLRHLELLDEFARENIDSL, the protein stability index is reported as 3.63. RRPSQVLRHLELLDEFARENIDSL showed a protein stability index of 4.62. Work on RRPSHVLRHLELLDEFARENIDSL yielded a protein stability index of 2.97. Variant RRPSCVLRHLELLDEFARENIDSL has a protein stability index of 2.17. RRPSPVLRHPELLDEFARENIDSL showed a protein stability index of 3.56. Variant RRPSPVLRHFELLDEFARENIDSL has a protein stability index of 3.9. Work on RRPSPVLRHRELLDEFARENIDSL yielded a protein stability index of 4.46. RRPSPVLRHLELLDEFAKENIDSL gave a protein stability index of 3.67. In the case of RRPSPVLRHLELLDEFATENIDSL, the protein stability index is reported as 3.16. RRPSPVLRHLELLDEFACENIDSL showed a protein stability index of 2.48. Work on RRVSPVLRHLELLDEFARENIDSL yielded a protein stability index of 1.44. With RRMSPVLRHLELLDEFARENIDSL the protein stability index was 2.26. In the case of RRASPVLRHLELLDEFARENIDSL, the protein stability index is reported as 2.35. FRPSPVLRHLELLDEFARENIDSL showed a protein stability index of 1.99. For CRPSPVLRHLELLDEFARENIDSL, the protein stability index was 2. QRPSPVLRHLELLDEFARENIDSL showed a protein stability index of 2.69. GRPSPVLRHLELLDEFARENIDSL showed a protein stability index of 2.46. With NRPSPVLRHLELLDEFARENIDSL the protein stability index was 2.5. Work on RRPSPKLRHLELLDEFARENIDSL yielded a protein stability index of 2.63. In the case of RRPSPHLRHLELLDEFARENIDSL, the protein stability index is reported as 3.79. RRPSPCLRHLELLDEFARENIDSL showed a protein stability index of 2.72. For RRPSPMLRHLELLDEFARENIDSL, the protein stability index was 2.31. Work on RRPSPNLRHLELLDEFARENIDSL yielded a protein stability index of 3.77. With RRPSPVLRHLELLNEFARENIDSL the protein stability index was 2.74. For RRPSPVLRHLELLQEFARENIDSL, the protein stability index was 2.94. Work on RRPSPVLRHLELLMEFARENIDSL yielded a protein stability index of 2.6. With RRPSPVLRKLELLDEFARENIDSL the protein stability index was 3.28. Work on RRPSPVLRCLELLDEFARENIDSL yielded a protein stability index of 2.48. Work on RSPSPVLRHLELLDEFARENIDSL yielded a protein stability index of 4.32. RNPSPVLRHLELLDEFARENIDSL gave a protein stability index of 3.25. Variant RQPSPVLRHLELLDEFARENIDSL has a protein stability index of 3.21. In the case of RPPSPVLRHLELLDEFARENIDSL, the protein stability index is reported as 4.61.
